The values that follow come from patent US12187779B2 (dated 2025).

The target of this experiment is T1, HPV 16 E6 peptide on HLA-A*02:01 (human).
T1 peptide: TIHDIILECV
Nature of the experiment: multimer staining.

B1: E6 TCR (TCR, V domains shown)
Valpha: GQQLNQSPQSMFIQEGEDVSMNCTSSSIFNTWLWYKQDPGEGPVLLIALYKAGELTSNGRLTAQFGITRKDSFLNISASIPSDVGIYFCAGHPSSNSGYALNFGKGTSLLVTP
Vbeta: GAGVSQSPRYKVTKRGQDVALRCDPISGHVSLYWYRQALGQGPEFLTYFNYEAQQDKSGLPNDRFSAERPEGSISTLTIQRTEQRDSAMYRCASSSQTGARTDTQYFGPGTRLTVL
For the molecule B1, the binding result is on record as “recognises”.
